From publication PMC2801713 (Molecular Biology of the Cell, 2010) come the findings set out here.

The target in the assay is GFP-WIP (wild type) (human, UniProt O43516 1-503). Nature of the assay: far-Western, overlay or dot blot.
GFP-WIP (wild type), sequence (O43516 whole entry): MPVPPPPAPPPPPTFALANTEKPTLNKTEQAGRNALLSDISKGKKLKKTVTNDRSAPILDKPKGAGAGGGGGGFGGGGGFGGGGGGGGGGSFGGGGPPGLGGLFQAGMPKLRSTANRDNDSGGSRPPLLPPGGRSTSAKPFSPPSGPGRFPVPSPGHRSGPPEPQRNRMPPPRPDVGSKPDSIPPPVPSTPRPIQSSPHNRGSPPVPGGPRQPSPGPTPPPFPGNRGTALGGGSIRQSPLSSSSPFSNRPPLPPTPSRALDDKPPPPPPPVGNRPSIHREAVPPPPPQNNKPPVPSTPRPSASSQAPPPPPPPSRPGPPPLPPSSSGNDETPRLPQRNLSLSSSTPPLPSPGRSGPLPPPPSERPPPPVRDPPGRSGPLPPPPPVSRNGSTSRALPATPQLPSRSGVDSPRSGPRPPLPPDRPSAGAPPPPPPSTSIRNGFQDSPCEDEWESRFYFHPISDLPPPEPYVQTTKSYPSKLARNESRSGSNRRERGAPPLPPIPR

B1: His-mAbp1-GST (natural protein, mouse, UniProt Q62418 1-436, looked up)
chain: MAVNLSRNGPALQEAYVRVVTEKSPTDWALFTYEGNSNDIRVAGTGEGGLEELVEELNSGKVMYAFCRVKDPNSGLPKFVLINWTGEGVNDVRKGACANHVSTMANFLKGAHVTINARAEEDVEPECIMEKVAKASGANYSFHKESTSFQDVGPQAPVGSVYQKTNAISEIKRVGKDNFWAKAEKEEENRRLEEKRRAEEERQRLEEERRERELQEAARREQRYQEQHRSAGAPSPSSRTGEPEQEAVSRTRQEWESAGQQAPHPREIFKQKERAMSTTSVTSSQPGKLRSPFLQKQLTQPETSYGREPTAPVSRPAAGVCEEPAPSTLSSAQTEEEPTYEVPPEQDTLYEEPPLVQQQGAGSEHIDNYMQSQGFSGQGLCARALYDYQAADDTEISFDPENLITGIEVIDEGWWRGYGPDGHFGMFPANYVELIE
For B1, the binding result is on record as “binds”.
